Laboratory results from US20050106674A1.

biological target: recombinant soluble HEK4 binding protein purified from CHO/HL6 cell-conditioned medium (human) (UniProt P52803); assay: BIAcore competition: soluble receptor extracellular domain preincubated with 0.250 µg/ml HEK4 BP, binding to immobilized HEK4 receptor
UniProt P52803, sequence (P52803 20-198 limits assumed, form in doubt): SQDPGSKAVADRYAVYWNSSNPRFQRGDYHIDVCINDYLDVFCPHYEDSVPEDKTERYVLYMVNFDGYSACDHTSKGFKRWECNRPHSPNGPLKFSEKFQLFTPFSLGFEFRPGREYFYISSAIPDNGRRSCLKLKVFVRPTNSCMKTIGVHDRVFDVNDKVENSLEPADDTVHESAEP

IC50 [µg/mL]	Substance
5	ECK soluble receptor (purified extracellular domain) (from UniProt P29317 24-537)
0.55	HEK4 receptor extracellular domain (HEK4-X), produced in CHO cells (from UniProt P29320 21-541)
10.5	HEK8 soluble receptor (purified extracellular domain) (from UniProt P54764 20-547)
